This assay has as its target T1, Src-streptavidin-PP polypeptide.
T1 construct: also called Src-strepta-PP; Src-Strepta-PP
The experiment in a line: co-expression in HEK293T cells; EV loading, Western blot. For orientation: Immunoblotting shows a protein as a band on a membrane.

B1: SBP-eGFP polypeptide (other)
chain: not shown
As for B1, the binding result is reported as “binds”.

(Values after US20250312464A1 (CILOA, published 2025).)
